# B1: HURP 1-285 (protein)
# chain: MSSSHFASRHRKDISTEMIRTKIAHRKSLSQKENRHKEYERNRHFGLKDVNIPTLEGRILVELDETSQGLVPEKTNVKPRAMKTILGDQRKQMLQKYKEEKQLQKLKEQREKAKRGIFKVGRYRPDMPCFLLSNQNAVKAEPKKAIPSSVRITRSKAKDQMEQTKIDNESDVRAIRPGPRQTSEKKVSDKEKKVVQPVMPTSLRMTRSATQAAKQVPRTVSSTTARKPVTRAANENEPEGKVPSKGRPAKNVETKPDKGISCKVDSEENTLNSQTNATSGMNPDG
# modifications: C-terminal eGFP, taxol-stabilized microtubules
# Assays:
# [1] = target: T1, microtubule (alpha/beta-tubulin, taxol-stabilized) (Sus scrofa, UniProt P02550); experiment: TIRF microscopy, no added salt
# T1 chain 1: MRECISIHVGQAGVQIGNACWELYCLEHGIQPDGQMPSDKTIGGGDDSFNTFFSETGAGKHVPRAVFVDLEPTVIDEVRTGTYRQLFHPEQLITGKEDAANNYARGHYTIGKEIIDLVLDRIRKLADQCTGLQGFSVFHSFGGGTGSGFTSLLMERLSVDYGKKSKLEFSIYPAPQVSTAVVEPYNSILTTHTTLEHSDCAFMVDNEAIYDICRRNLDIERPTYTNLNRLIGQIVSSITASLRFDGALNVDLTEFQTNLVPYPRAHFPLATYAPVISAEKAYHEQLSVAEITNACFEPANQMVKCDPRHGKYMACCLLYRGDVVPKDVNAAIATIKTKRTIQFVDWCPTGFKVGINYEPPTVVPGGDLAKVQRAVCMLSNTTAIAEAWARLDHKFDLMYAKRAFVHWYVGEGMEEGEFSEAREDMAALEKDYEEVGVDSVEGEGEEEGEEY
# T1 chain 2: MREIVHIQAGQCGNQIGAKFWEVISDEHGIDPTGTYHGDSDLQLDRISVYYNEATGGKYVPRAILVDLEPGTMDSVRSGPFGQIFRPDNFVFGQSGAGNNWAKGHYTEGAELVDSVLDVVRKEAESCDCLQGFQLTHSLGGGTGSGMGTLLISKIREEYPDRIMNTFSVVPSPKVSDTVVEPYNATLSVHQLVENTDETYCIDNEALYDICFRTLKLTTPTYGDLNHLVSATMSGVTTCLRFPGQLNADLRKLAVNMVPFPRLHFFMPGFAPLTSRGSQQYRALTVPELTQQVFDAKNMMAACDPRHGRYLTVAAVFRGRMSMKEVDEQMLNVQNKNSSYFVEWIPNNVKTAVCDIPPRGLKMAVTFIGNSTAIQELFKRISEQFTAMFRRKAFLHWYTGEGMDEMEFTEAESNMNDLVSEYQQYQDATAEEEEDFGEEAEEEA
# [2] = target: T1, microtubule (alpha/beta-tubulin, …); experiment: TIRF microscopy, 150 mM salt
binder,measurement,setting,value
B1,Kd,[1],~33 nM
same,Kd,[2],~600 nM

# — article PMC11160874 (2024)
